The text below walks through data of patent US20230340055A1 (published 2023).

The target in experiment [1] is T1, IL-2Rβγ (dimeric intermediate affinity IL-2 receptor), human, on cells (human, UniProt P14784 27-551; P31785 23-369).
T1 sequence (looked up) 1: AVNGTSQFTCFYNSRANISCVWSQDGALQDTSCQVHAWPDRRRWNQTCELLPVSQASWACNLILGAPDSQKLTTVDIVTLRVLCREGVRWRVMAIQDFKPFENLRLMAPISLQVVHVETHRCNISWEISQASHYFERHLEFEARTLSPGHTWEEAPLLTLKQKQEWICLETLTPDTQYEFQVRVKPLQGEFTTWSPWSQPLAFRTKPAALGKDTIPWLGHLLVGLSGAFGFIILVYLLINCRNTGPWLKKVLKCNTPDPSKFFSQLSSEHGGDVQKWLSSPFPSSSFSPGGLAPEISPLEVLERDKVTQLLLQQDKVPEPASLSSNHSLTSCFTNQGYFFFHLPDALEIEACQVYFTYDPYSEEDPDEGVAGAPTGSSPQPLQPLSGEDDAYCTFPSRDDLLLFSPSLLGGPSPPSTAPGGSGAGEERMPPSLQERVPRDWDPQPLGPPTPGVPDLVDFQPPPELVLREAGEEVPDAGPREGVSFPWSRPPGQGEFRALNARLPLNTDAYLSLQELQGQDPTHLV
T1 sequence (looked up) 2: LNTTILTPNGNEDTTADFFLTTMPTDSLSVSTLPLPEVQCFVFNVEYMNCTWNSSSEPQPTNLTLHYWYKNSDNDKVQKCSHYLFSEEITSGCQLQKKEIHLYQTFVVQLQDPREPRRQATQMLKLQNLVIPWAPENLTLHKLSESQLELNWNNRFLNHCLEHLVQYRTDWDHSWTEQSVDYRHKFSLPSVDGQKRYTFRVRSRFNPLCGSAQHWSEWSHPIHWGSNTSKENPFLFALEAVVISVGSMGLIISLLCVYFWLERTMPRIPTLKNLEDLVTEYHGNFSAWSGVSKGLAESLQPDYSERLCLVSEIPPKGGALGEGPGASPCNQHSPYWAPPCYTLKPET
The experiment can be described thus: cell-based or functional assay.

Experiment [2] concerns the target T2, IL-2Rαβγ (trimeric high-affinity IL-2 receptor), human, on cells (human, UniProt P01589 22-272; P14784 27-551; P31785 23-369).
T2 sequence (looked up) 1: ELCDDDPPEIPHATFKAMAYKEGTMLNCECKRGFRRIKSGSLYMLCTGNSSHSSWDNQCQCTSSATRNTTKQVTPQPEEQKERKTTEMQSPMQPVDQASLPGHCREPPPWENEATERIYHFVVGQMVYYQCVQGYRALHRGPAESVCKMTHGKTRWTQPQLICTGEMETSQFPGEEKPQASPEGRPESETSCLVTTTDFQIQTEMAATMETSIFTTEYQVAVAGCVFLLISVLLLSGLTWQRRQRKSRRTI
T2 sequence (looked up) 2: T1 sequence (looked up) 1
T2 sequence (looked up) 3: T1 sequence (looked up) 2
Nature of the experiment: cell-based or functional assay.

Experiment [3] has as its target T1, IL-2Rβγ (dimeric intermediate affinity …). The experiment can be described thus: cell-based or functional assay. The source holds these as a separate data set.
Experiment [4] addresses T2, IL-2Rαβγ (trimeric high-affinity IL-2 …). The experiment can be described thus: cell-based or functional assay. The source holds these as a separate data set.
For experiment [5], the target named is T1, IL-2Rβγ (dimeric intermediate affinity …). The experiment can be described thus: cell-based or functional assay. The source holds these as a separate data set.
The target of experiment [6] is T2, IL-2Rαβγ (trimeric high-affinity IL-2 …). Nature of the experiment: cell-based or functional assay. The source holds these as a separate data set.
Experiment [7] addresses T3, Human IL-2 Receptor alpha, Fc-Tag (Symansis, New Zealand) (human, UniProt P01589 22-240).
T3 construct: extracellular domain; Bought reagent; also called IL-2Rα; IL-2Rα-Fc; not shown: Fc-Tag (captured by anti-human IgG (Fc) antibody)
T3 sequence (looked up): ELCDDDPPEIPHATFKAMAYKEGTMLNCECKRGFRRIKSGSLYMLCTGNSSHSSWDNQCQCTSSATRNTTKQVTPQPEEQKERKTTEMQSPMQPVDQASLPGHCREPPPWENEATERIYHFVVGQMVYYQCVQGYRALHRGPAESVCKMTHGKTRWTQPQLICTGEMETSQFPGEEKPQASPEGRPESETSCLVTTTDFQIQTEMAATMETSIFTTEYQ
The experiment can be described thus: SPR; KD to IL-2Rα divided by KD to IL-2Rβ of the same compound. The procedure:
(§1) For the determination of binding kinetics to IL-2Rα the following chip preparation was used: Human IL-2 Receptor alpha, Fc-Tag (Symansis, New Zealand) was diluted in HBS-EP running buffer (GE Healthcare, 10 mM HEPES, 150 mM NaCl, 3 mM EDTA, 0.05% Surfactant P20, pH 7.4) to approx. 0.67 µg/mL and immobilized at a flow rate of 50 µL/min for 60 s to achieve 80 - 100 response units (RU).
(§2) For the determination of binding kinetics to IL-2Rβ the following chip preparation was used: Human IL-2 Receptor beta, Fc-Tag (Symansis, New Zealand) was diluted in HBS-EP running buffer (GE Healthcare, 10 mM HEPES, 150 mM NaCl, 3 mM EDTA, 0.05% Surfactant P20, pH 7.4) to around 0.80 µg/mL and immobilized at a flow rate of 50 µL/min for 60 s to achieve 140 - 180 response units (RU).
(§3) (50 µL/min flow rate, 60 s contact time, 300 s dissociation time). Double referenced data (subtracted data from the reference flow cell and the buffer only samples) was analysed via a kinetic fit (1:1 binding model) to determine KD, kₐ and kd. Regeneration after each cycle was performed with 3 M MgCl₂.
For orientation: In SPR one partner is held on a chip, and binding of the other changes the refractive index at the surface.

The target of experiment [8] is T3, Human IL-2 Receptor alpha, Fc-Tag …. Nature of the experiment: calculated from the SPR KD values of Example 7; reference protein 5a. The procedure: as §1, §2, §3
For experiment [9], the target named is T4, Human IL-2 Receptor beta, Fc-Tag (Symansis, New Zealand) (human, UniProt P14784 27-240).
T4 construct: extracellular domain; Bought reagent; also called IL-2Rβ; IL-2Rβ-Fc; not shown: Fc-Tag (captured by anti-human IgG (Fc) antibody)
T4 sequence (looked up): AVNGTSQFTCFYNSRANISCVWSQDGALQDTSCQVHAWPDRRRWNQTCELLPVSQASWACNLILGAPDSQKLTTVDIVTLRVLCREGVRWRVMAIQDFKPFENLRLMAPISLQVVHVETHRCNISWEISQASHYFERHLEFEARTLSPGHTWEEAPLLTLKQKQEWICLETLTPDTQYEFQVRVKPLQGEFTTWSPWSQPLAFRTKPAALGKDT
The experiment can be described thus: SPR (Biacore T200), IL-2Rβ-Fc captured on anti-human IgG (Fc) CM5 chip, IL-2 as analyte, multi-cycle kinetics, 1:1 kinetic fit, 25 C. On the procedure:
as §2, §3

For experiment [10], the target named is T5, IL-2-Rα/β/γ on the murine CTLL-2 T lymphocyte cell line (murine, UniProt P01590 22-268; P16297 27-539; P34902 23-369).
T5 sequence (looked up) 1: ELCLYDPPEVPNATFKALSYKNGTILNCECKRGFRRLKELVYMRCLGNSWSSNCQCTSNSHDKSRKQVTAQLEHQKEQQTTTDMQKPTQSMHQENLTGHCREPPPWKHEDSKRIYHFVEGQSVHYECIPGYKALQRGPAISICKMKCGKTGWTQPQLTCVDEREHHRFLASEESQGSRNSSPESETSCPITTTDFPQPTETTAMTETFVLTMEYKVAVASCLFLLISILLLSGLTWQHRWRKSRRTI
T5 sequence (looked up) 2: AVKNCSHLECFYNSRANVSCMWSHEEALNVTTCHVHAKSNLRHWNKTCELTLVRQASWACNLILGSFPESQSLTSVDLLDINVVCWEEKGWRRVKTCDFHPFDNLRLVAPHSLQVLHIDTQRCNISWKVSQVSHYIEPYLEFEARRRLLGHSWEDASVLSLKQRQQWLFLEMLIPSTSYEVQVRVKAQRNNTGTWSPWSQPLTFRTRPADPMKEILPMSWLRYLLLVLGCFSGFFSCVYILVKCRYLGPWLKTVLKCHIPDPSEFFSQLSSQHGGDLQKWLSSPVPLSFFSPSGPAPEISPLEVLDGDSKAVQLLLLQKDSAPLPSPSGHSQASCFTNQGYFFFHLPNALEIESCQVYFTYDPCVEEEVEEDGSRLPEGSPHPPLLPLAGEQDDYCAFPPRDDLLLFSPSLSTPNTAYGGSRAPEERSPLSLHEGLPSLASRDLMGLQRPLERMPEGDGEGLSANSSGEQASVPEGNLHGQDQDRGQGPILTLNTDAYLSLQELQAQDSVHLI
T5 sequence (looked up) 3: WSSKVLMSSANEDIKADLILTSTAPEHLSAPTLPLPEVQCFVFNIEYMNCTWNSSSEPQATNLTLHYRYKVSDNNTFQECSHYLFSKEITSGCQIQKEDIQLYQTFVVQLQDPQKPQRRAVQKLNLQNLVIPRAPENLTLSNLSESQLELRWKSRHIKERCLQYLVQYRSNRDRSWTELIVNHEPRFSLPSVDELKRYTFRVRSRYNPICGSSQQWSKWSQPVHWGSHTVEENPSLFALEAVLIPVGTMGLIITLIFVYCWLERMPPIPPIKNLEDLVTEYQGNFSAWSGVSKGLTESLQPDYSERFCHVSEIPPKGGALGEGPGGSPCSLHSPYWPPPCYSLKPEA
The experiment can be described thus: cell-based or functional assay.

Experiment [11] concerns the target T1, IL-2Rβγ (dimeric intermediate affinity …). Nature of the experiment: cell-based or functional assay. The source holds these as a separate data set.

Where two headings read alike, the source gives them in different places.

B1: protein 1a (ligand)
chain: APTSSSTKKTQLQLEHLLLDLQMILNGINNYKNPKLTFGNSTKFYMPKKATELKHLQCLEEELKPLEEVLNLAQSKNFHLRPRDLISNINVIVLELKGSETTFMCEYADETATIVEFLNRWITFSQSIISTLTHHHHHH
modifications: N-glycosylated (at least 90% by SDS-PAGE shift, removed by PNGase F)
In the case of B1, in experiment [1], the “Ave EC50, pSTAT5 MFI, CD8+ T cells (human whole blood)” value came to 12.6 ng/ml; the “Ave EC50, pSTAT5 MFI, NK cells (human whole blood)” value worked out at 3.07 ng/ml; the “Fold reduction in potency vs WT-IL2 (1d), pSTAT5 MFI, CD8+ T cells” value turned out to be 1.44 fold; the “Fold reduction in potency vs WT-IL2 (1d), pSTAT5 MFI, NK cells” value was 1.34 fold. Also, in experiment [2], the “Ave EC50, pSTAT5 MFI, T regulatory cells (human whole blood)” value was 7.93 ng/ml and the “Fold reduction in potency vs WT-IL2 (1d), pSTAT5 MFI, T regulatory cells” value was 437 fold. Besides, in [3], the “Ave EC50, pSTAT5 percent positive, CD8+ T cells (human whole blood)” value stood at 1.69 ng/ml; the “Ave EC50, pSTAT5 percent positive, NK cells (human whole blood)” value amounted to 0.371 ng/ml; the “Fold reduction in potency vs WT-IL2 (1d), pSTAT5 percent positive, CD8+ T cells” value worked out at 1.58 fold; the “Fold reduction in potency vs WT-IL2 (1d), pSTAT5 percent positive, NK cells” value came out at 2.01 fold. In addition, in experiment [4], the “Ave EC50, pSTAT5 percent positive, T regulatory cells (human whole blood)” value was determined as 1.06 ng/ml and the “Fold reduction in potency vs WT-IL2 (1d), pSTAT5 percent positive, T regulatory cells” value came out at 598 fold.

B2: protein 1f (ligand)
chain: APTSSSTKKTQLQLEHLLLDLQMILNGINNYKNPKLTFGNSTKFYMPKKATELKHLQCLEEELKPLEEVLNLAQSKNFHLRPRDLISNINVIVLELKGSETTFMCEYADETATIVEFLNRWITFSQSIISTLT
modifications: N-glycosylated at the introduced N-glycosylation site (motif FGNST, peptide LTFGNSTK; heterogeneous glycans); heterogeneous O-glycosylation at the wildtype O-glycosylation site
notes: also called N-glycosylated IL2 (1f)
Broadly, the Kd is the equilibrium constant for the complex coming apart. B2: in experiment [5], the “Ave EC50, pSTAT5 MFI, CD8+ T cells (human whole blood)” value amounted to 54.8 ng/ml; the “Ave EC50, pSTAT5 MFI, NK cells (human whole blood)” value turned out to be 7.35 ng/ml; the “Fold reduction in potency vs WT-IL2 (1d), pSTAT5 MFI, CD8+ T cells” value was determined as 2.13 fold; the “Fold reduction in potency vs WT-IL2 (1d), pSTAT5 MFI, NK cells” value is 1.22 fold. In experiment [6], the “Ave EC50, pSTAT5 MFI, T regulatory cells (human whole blood)” value worked out at 33.5 ng/ml and the “Fold reduction in potency vs WT-IL2 (1d), pSTAT5 MFI, T regulatory cells” value came to 372 fold. Further, the “KD-Ratio (α/β)” value in [7] is > 4.02. Further, in experiment [8], the “ratio of Ratio protein 1f to Ratio protein 5a (KD to IL-2Rα / KD to IL-2Rβ)” value was > 200. This molecule also returned a dissociation constant Kd in experiment [9] of 993 nM.

B3: conjugate release mixture 8 (other)
chain: B2 chain
modifications: glycosylated as protein 6; residual conjugate 7 in the mixture carries one 40 kDa mPEG-linker on a primary amine of the N-terminus or a lysine side chain
Regarding B3, in experiment [10], the “EC50 CTLL-2, STAT5 phosphorylation” value was 1.57 µg/mL and the “Ratio (E50 CTLL-2 cells/EC50 HH cell)” value turned out to be 39.5. In addition, the “EC50 HH cells, STAT5 phosphorylation” value in experiment [11] stood at 0.0398 µg/mL.
